According to the supplement of paper PMC10126150:
± gives the standard deviation of the averaged measurements.

Test system: ATP
Experiment: switch fluorescence ratio, 500 uM ATP over buffer (Cy3 cluster intensity, sum of 5 cycles each) (fold (ratio)); higher = stronger signal-on switching upon ATP binding; sequences stand for … in TCGTCGGCAGCGTCAGATGTGTATAAGAGACAGTTTTTTTTTTTTTTTTTTTTTTTTT…TC
Conditions: aptamer strand: ATP DNA aptamer (quencher-CACCTGGGGGAGTATTGCGGAGGAAGG + anchor), 100 nM annealed; ATP concentration: 500 uM
Procedure, shortened: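 Per cluster, summed Cy3 intensity from the target cycles was divided by that from the buffer cycles to give the fluorescence ratio, then averaged per switch-domain sequence. Clusters outside 100-1000 RFU were excluded. The Cy3-labelled switching-strand clusters, on a modified Illumina MiSeq flow-cell, were annealed to 100 nM quencher-labelled ATP aptamer and imaged in selection buffer, then after 15 min with 500 uM ATP at 22 °C, for five cycles with NaOH stripping and re-annealing between them.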
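Also: ATP exposure 15 min at 22 °C before imaging.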

Sequence | switch fluorescence ratio
TTATTATATG | 0.971 ± 0.022
TTATTATCAG | 1.013 ± 0.0021
TTATTCAGTC | 0.98 ± 0.046
TTATTCATTT | 1.001 ± 0.01
TTATTCCCGA | 0.9791 ± 0.0095
TTATTCCCGT | 0.985 ± 0.064
TTATTCCTAT | 1.02 ± 0.021
TTATTCGGCT | 1.08 ± 0.05
TTATTCTCGG | 1.04 ± 0.068
TTATTGAAGC | 0.983 ± 0.028
TTATTGAGGT | 0.981 ± 0.012
TTATTGATGG | 0.99 ± 0.019
TTATTGGACT | 1.02 ± 0.019
TTATTGGAGG | 0.9918 ± 0.0077
TTATTGGCTT | 0.9895 ± 0.0037
TTATTGGGAT | 0.981 ± 0.033
TTATTGGGGG | 0.982 ± 0.037
TTATTGGGTT | 0.995 ± 0.017
TTATTGGTA | 1.04 ± 0.016
TTATTGTACT | 1.008 ± 0.0073
TTATTGTTTA | 0.99 ± 0.029
TTATTTAAGG | 1.01 ± 0.031
TTATTTAGGC | 1.12 ± 0.055

Sequence | switch fluorescence ratio
TTATTTCGCG | 0.986 ± 0.041
TTATTTCGGG | 0.973 ± 0.013
TTATTTGCAT | 0.994 ± 0.013
TTATTTGGGT | 1 ± 0.021
TTATTTGTAC | 1.052 ± 0.0021
TTATTTGTCA | 0.989 ± 0.013
TTATTTTAGT | 1 ± 0.017
TTATTTTCGG | 0.994 ± 0.019
TTATTTTTTT | 1 ± 0.033
TTCAAAGATG | 0.9743 ± 0.0021
TTCAAGGCGG | 1.01 ± 0.014
TTCAAGGGCA | 1.01 ± 0.027
TTCAAGGGTG | 1.11 ± 0.024
TTCAAGTTTT | 1.02 ± 0.063
TTCAATCCCG | 0.991 ± 0.069
TTCAATGTCG | 1.05 ± 0.024
TTCAATTCCG | 1.03 ± 0.092
TTCAATTGGA | 1 ± 0.042
TTCACCACTT | 1.01 ± 0.025
TTCACCCGGT | 1.11 ± 0.12
TTCACCCTTT | 1.02 ± 0.049
TTCACGGCCT | 1.03 ± 0.018
TTCACGGTTG | 1.04 ± 0.061

Sequence | switch fluorescence ratio
TTCACGTTTT | 1.03 ± 0.087
TTCAGAAAGA | 0.998 ± 0.023
TTCAGACTAT | 1.01 ± 0.027
TTCAGAGCTT | 1 ± 0.035
TTCAGAGGAT | 1.02 ± 0.048
TTCAGAGTTT | 0.978 ± 0.014
TTCAGCGGGA | 0.992 ± 0.019
TTCAGGAGGA | 1.03 ± 0.011
TTCAGGGATG | 0.9822 ± 0.0028
TTCAGGTCGT | 0.992 ± 0.052
TTCAGGTTAG | 1.01 ± 0.027
TTCAGGTTGG | 1.08 ± 0.082
TTCAGTAGAG | 1.03 ± 0.024
TTCAGTGATT | 1 ± 0.022
TTCAGTGTGG | 0.971 ± 0.022
TTCAGTTCGG | 0.9942 ± 0.0016
TTCAGTTGCA | 1.01 ± 0.024
TTCAGTTTGG | 1.01 ± 0.038
TTCATACGGG | 1.03 ± 0.04
TTCATAGTTC | 0.986 ± 0.013
TTCATATTTT | 0.996 ± 0.015
TTCATCGACT | 0.996 ± 0.047
TTCATCTCGC | 1.1 ± 0.1

Sequence | switch fluorescence ratio
TTCATGGTTT | 1.01 ± 0.028
TTCATGTTGG | 0.998 ± 0.019
TTCATTAGCT | 1 ± 0.025
TTCATTTATT | 0.9904 ± 0.0055
TTCATTTGAG | 0.995 ± 0.021
TTCATTTTGC | 1.02 ± 0.015
TTCCAAAATG | 1.005 ± 0.0081
TTCCAAATCC | 1.01 ± 0.056
TTCCACATCC | 1.07 ± 0.044
TTCCACGCGG | 1.268 ± 0.0091
TTCCAGATTT | 1.02 ± 0.062
TTCCAGGTTC | 1.04 ± 0.012
TTCCAGTTTT | 1 ± 0.04
TTCCATCCAT | 1.0067 ± 0.00069
TTCCATCGCC | 1.53 ± 0.14
TTCCATCGGG | 0.993 ± 0.033
TTCCATGCGG | 1.02 ± 0.037
TTCCATTAGT | 1.01 ± 0.035
TTCCCAGTGT | 1.87 ± 0.053
TTCCCATTTA | 1.04 ± 0.02
TTCCCGTTGA | 1.14 ± 0.027
TTCCCTAAGG | 2.35 ± 1.7
TTCCGGAAGT | 1.04 ± 0.04

Sequence | switch fluorescence ratio
TTCCGGATGG | 1.01 ± 0.021
TTCCGGGACG | 1.027 ± 0.0033
TTCCGGGTAT | 1.07 ± 0.03
TTCCGGGTGT | 1.66 ± 0.75
TTCCGTCTTC | 1.09 ± 0.11
TTCCTAAAAG | 0.979 ± 0.011
TTCCTAATT | 1.03 ± 0.033
TTCCTGCTTG | 1.36 ± 0.6
TTCCTGGGGA | 0.9943 ± 0.0077
TTCCTGGGTT | 1.002 ± 0.0097
TTCCTGGTCA | 0.997 ± 0.012
TTCCTTCTTT | 1.08 ± 0.061
TTCGAAGATT | 1 ± 0.051
TTCGAAGGCT | 0.995 ± 0.017
TTCGAATATT | 1.13 ± 0.26
TTCGACGAGG | 0.996 ± 0.022
TTCGAGTGCC | 0.991 ± 0.013
TTCGATGCGG | 1.02 ± 0.036
TTCGATGGAA | 1.06 ± 0.0038
TTCGATGGTG | 0.987 ± 0.0044
TTCGATTCGA | 0.961 ± 0.011
TTCGATTGTG | 0.9867 ± 0.0088
TTCGATTTTT | 0.981 ± 0.048

Sequence | switch fluorescence ratio
TTCGCAACGG | 1.22 ± 0.34
TTCGCCGGTT | 1.02 ± 0.0021
TTCGCGTAGA | 1.01 ± 0.014
TTCGGAACGG | 0.991 ± 0.027
TTCGGACCCG | 0.976 ± 0.01
TTCGGACCTT | 1.21 ± 0.021
TTCGGAGTCA | 1.1 ± 0.019
TTCGGATAGT | 0.98 ± 0.011
TTCGGCGGGC | 1 ± 0.027
TTCGGCGTTG | 0.972 ± 0.02
TTCGGCTTGA | 0.994 ± 0.028
TTCGGGAATA | 1.03 ± 0.022
TTCGGGAGAA | 1.01 ± 0.052
TTCGGGAGGG | 0.973 ± 0.029
TTCGGGCATT | 0.989 ± 0.046
TTCGGGGCGG | 0.934 ± 0.071
TTCGGGGGGT | 1.02 ± 0.051
TTCGGGGGTA | 0.97 ± 0.023
TTCGGGTAAT | 1.08 ± 0.11
TTCGGGTCGC | 0.963 ± 0.049
TTCGGGTGGA | 1.02 ± 0.046
TTCGGGTTAT | 1.01 ± 0.049
TTCGGGTTTC | 1.04 ± 0.058

Sequence | switch fluorescence ratio
TTCGGTAAAT | 1.03 ± 0.033
TTCGGTATAG | 1 ± 0.025
TTCGGTGACC | 1.02 ± 0.014
TTCGTAATCG | 1.07 ± 0.093
TTCGTACAT | 1.13 ± 0.22
TTCGTACGTC | 1.01 ± 0.029
TTCGTATTTC | 1.06 ± 0.083
TTCGTCATTT | 0.983 ± 0.034
TTCGTGACCC | 1.019 ± 0.0043
TTCGTGCGAT | 1.04 ± 0.013
TTCGTGCGGC | 1.06 ± 0.042
TTCGTGTCCC | 0.994 ± 0.019
TTCGTGTGGT | 1 ± 0.019
TTCGTGTTTT | 1.04 ± 0.059
TTCGTTAGAG | 0.9796 ± 0.0014
TTCGTTGGAC | 1.01 ± 0.012
TTCGTTGGGT | 0.986 ± 0.016
TTCGTTTTGC | 0.999 ± 0.035
TTCTAACCCC | 1.12 ± 0.012
